From PMC12527946, “Structural analyses define the molecular basis of clusterin chaperone function” (Nature Structural & Molecular Biology, 2025)

B1: denatured bovine rhodanese (D-Rho) (enzyme, UniProt P00586 1-297, looked up)
chain: MVHQVLYRALVSTKWLAESVRAGKVGPGLRVLDASWYSPGTREARKEYLERHVPGASFFDIEECRDKASPYEVMLPSEAGFADYVGSLGISNDTHVVVYDGDDLGSFYAPRVWWMFRVFGHRTVSVLNGGFRNWLKEGHPVTSEPSRPEPAIFKATLNRSLLKTYEQVLENLESKRFQLVDSRAQGRYLGTQPEPDAVGLDSGHIRGSVNMPFMNFLTEDGFEKSPEELRAMFEAKKVDLTKPLIATCRKGVTACHIALAAYLCGKPDVAIYDGSWFEWFHRAPPETWVSQGKGGKA
notes: rhodanese (33 kDa), bovine; Denatured in 6 M guanidinium–HCl and 5 mM DTT and diluted 120-fold into buffer; non-native, forms oligomers and aggregates
B2: receptor-associated protein (RAP) (natural protein, UniProt P30533 36-357, looked up)
chain: SREKNQPKPSPKRESGEEFRMEKLNQLWEKAQRLHLPPVRLAELHADLKIQERDELAWKKLKLDGLDEDGEKEARLIRNLNVILAKYGLDGKKDARQVTSNSLSGTQEDGLDDPRLEKLWHKAKTSGKFSGEELDKLWREFLHHKEKVHEYNVLLETLSRTEEIHENVISPSDLSDIKGSVLHSRHTELKEKLRSINQGLDRLRRVSHQGYSTEAEFEEPRVIDLWDLAQSANLTDKELEAFREELKHFEAKIEKHNHYQKQLEIAHEKLRHAESVGDGERVSRSREKHALLEGRTKELGYTVKKHLQDLSGRISRARHNEL
notes: LRPAP1 from plasmid pQTEV-LRPAP1; the signal peptide (amino acids 1–35) was removed; Purification is told in the Supplementary Information; also called LRPAP1; low density lipoprotein receptor-related protein-associated protein 1
B3: wild-type human clusterin (WT Clu) (natural protein)
chain 1: DQTVSDNELQEMSNQGSKYVNKEIQNAVNGVKQIKTLIEKTNEERKTLLSNLEEAKKKKEDALNETRESETKLKELPGVCNETMMALWEECKPCLKQTCMKFYARVCRSGSGLVGRQLEEFLNQSSPFYFWMNGDRIDSLLENDRQQTHMLDVMQDHFSRASSIIDELFQDRFFTREPQDTYHYLPFSLPHRRPHFFFPKSRIVR
chain 2: SLMPFSPYEPLNFHAMFQPFLEMIHEAQQAMDIHFHSPAFQHPPTEFIREGDDDRTVCREIRHNSTGCLRMKDQCDKCREILSVDCSTNNPSQAKLRRELDESLQVAERLTRKYNELLKSYQWKMLNTSSLLEQLNEQFNWVSRLANLTQGEDQYYLRVTTVASHTSDSDVPSGVTEVVVKLFDSDPITVTVPVEVSRKNPKFMETVAEKALQEYRKKHREE
modifications: N-glycans (six in the whole protein); five disulfide bonds to the α-chain | N-glycans (six in the whole protein); five disulfide bonds to the β-chain
notes: clusterin β-chain, human, residues 23–227 of the precursor; clusterin α-chain, human, residues 228–449 of the precursor; Almost completely processed by furin into β- and α-chain, which stay disulfide-linked; In the flotation assay it stood in DMPC nanodiscs (Clu–DMPC); also called apolipoprotein J; ApoJ

Assays:
[1] = molecular target: B3; assay: SEC; D-Rho diluted into PBS to 0.5 μM with 1.5 μM WT Clu, 30 min at 25 °C; soluble fraction on Superose-6, fractions by SDS-PAGE and immunoblotting against Rho and Clu; settings: both partners purified
[2] = molecular target: VLDLR(28–797)Δ(751–779)-C-tag (VLDLR ectodomain) (human, UniProt P98155-2 28-797, Δ(751–779), Secreted from HEK293E, glycosylated, Ca2+-bound LDLR repeats, disulfides; C-terminal C-tag left out. Deletion 751-779 taken as printed, in the numbering of the long isoform); assay: ELISA; plate coated with 10 µg/ml VLDLR-ed; Clu or RAP in TBS-C pH 7.4, 2 mM CaCl2, 2% BSA, 0.05% Tween-20, 1 h at room temperature; background binding to BSA subtracted; one-site specific binding fit; settings: both partners purified
[3] = molecular target: the molecule itself; assay: SEC; 10 μM Clu in 20 mM MES-NaOH pH 6.5, HEPES-NaOH pH 7.5 or Tris-HCl pH 8.5, 100 mM NaCl, 1 mM EDTA, overnight or longer on ice; Superdex-200 Increase 3.2/300 at room temperature; monomers and dimers
[4] = molecular target: VLDLR(28–797)Δ(751–779)-C-tag (VLDLR ectodomain) (human, UniProt P98155-2 28-797, Δ(751–779)); assay: ELISA; plate coated with 10 µg/ml VLDLR-ed; Clu or RAP in TBS-C pH 7.4, 2 mM CaCl2, 2% BSA, 0.05% Tween-20, 1 h at room temperature; background binding to BSA subtracted; one-site specific binding fit; settings: both partners purified

**Q.** Does B1 bind [1]?
**A.** Result: binds

**Q.** For B2, which Kd [2] is on record?
**A.** The Kd was ~1.2 nM.

**Q.** How did the “stoichiometry N” value [3] turn out when B3 was run?
**A.** The value was 2.

**Q.** And the Kd [4]?
**A.** Its Kd is ~80 nM.
